Laboratory results from patent US20210246166A1 (Bayer, published 2021).
Bridge positions count the residues as written; N and C are the ends. Square brackets hold non-standard residues; d marks the D form. Ends that are not written are not given here. Oic = O=C(O)[C@@H]1C[C@@H]2CCCC[C@@H]2N1; NMeI = CC[C@H](C)[C@H](NC)C(=O)O; tBuAla = CC(C)(C)C[C@H](N)C(=O)O; Pen = CC(C)(S)[C@H](N)C(=O)O; NMeC = CN[C@@H](CS)C(=O)O; NMeA = CN[C@@H](C)C(=O)O; Orn = NCCC[C@H](N)C(=O)O; Aib = CC(C)(N)C(=O)O; Sar = CNCC(=O)O

How the values were obtained:
[1] = molecular target: T1, recombinant human MASP1 active protease (amino acids 297-699, C-terminal His Tag) (human, UniProt P48740 297-699); experiment: cell-based or functional assay
T1 sequence: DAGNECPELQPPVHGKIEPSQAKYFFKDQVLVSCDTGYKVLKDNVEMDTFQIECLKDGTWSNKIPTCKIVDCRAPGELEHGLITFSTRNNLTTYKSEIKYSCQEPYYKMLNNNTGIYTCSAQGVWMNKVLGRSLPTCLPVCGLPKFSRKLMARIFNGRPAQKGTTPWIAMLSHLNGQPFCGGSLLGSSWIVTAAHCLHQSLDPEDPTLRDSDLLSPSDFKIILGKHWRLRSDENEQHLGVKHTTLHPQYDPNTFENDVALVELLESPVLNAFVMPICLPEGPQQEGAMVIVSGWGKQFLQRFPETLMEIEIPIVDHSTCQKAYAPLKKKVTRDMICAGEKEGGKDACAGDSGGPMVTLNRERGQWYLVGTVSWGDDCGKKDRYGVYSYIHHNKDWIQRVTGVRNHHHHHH

[2] = molecular target: recombinant human MASP2 active protease (amino acids 297-686, C-terminal His Tag) (human, UniProt O00187 297-686); experiment: cell-based or functional assay
Chain of recombinant human MASP2 active protease (amino acids 297-686, C-terminal His Tag) (O00187 other isoform, or with tags, fused parts or gaps limits assumed): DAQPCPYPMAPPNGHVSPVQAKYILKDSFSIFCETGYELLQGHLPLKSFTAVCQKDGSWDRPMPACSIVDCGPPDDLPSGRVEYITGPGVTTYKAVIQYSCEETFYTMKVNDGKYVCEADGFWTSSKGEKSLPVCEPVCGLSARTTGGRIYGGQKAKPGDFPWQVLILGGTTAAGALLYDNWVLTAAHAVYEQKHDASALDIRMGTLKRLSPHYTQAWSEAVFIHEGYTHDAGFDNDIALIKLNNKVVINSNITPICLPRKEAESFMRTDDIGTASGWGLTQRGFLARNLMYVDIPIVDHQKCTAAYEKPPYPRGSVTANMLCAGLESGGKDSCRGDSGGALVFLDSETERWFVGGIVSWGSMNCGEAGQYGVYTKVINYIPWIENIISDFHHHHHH

Binder | human MASP1 IC50 [1] | human MASP2 IC50 [2]
AICSRSLP[Oic]I[Pen]I-OH (disulfide 3-11; N-terminus assumed; SMILES CC[C@H](C)[C@H](NC(=O)[C@H]1NC(=O)[C@H]([C@@H](C)CC)NC(=O)[C@@H]2C[C@@H]3CCCC[C@@H]3N2C(=O)[C@@H]2CCCN2C(=O)[C@H](CC(C)C)NC(=O)[C@H](CO)NC(=O)[C@H](CCCNC(=N)N)NC(=O)[C@H](CO)NC(=O)[C@@H](NC(=O)[C@@H](NC(=O)[C@H](C)N)[C@@H](C)CC)CSSC1(C)C)C(=O)O) [AIC+SRSLP-(Oic)-I-(Pen)+I-OH] | 3 nM | 360 nM
[Sar]ICSRSLP[Oic]I[Pen]IP[PEG4‑CH2CO2H (15 atoms)]-NH2 (disulfide 3-11) [((N-Me)G)-IC+SRSLP-(Oic)-I-(Pen)+IP-(PEG4-CH2CO2H (15 atoms))-NH2] | 2.9 nM | 89 nM
AICSRS[tBuAla]PP[(2S)‑2‑(Amino)‑2‑((1S,3R)-3-hydroxycyclohexyl)acetic acid][NMeC]IPD-NH2 (disulfide 3-11) [AIC+SRS-((tBu)A)-PP-((2S)-2-(Amino)-2-[(1S,3R)-3-hydroxycyclohexyl]acetic acid)-((N-Me)C)+IPD-NH2] | 3 nM | 330 nM
[Aib]ICSRS[tBuAla]PPI[Pen]IPD-NH2 (disulfide 3-11; N-terminus assumed; SMILES CC[C@H](C)[C@@H]1NC(=O)[C@@H]2CCCN2C(=O)[C@@H]2CCCN2C(=O)[C@H](CC(C)(C)C)NC(=O)[C@H](CO)NC(=O)[C@H](CCCNC(=N)N)NC(=O)[C@H](CO)NC(=O)[C@@H](NC(=O)[C@@H](NC(=O)C(C)(C)N)[C@@H](C)CC)CSSC(C)(C)[C@@H](C(=O)N[C@H](C(=O)N2CCC[C@H]2C(=O)N[C@@H](CC(=O)O)C(N)=O)[C@@H](C)CC)NC1=O) [(Aib)-IC+SRS-((tBu)A)-PPI-(Pen)+IPD-NH2] | 1.19 nM | 36 nM
AICSRSLP[Oic]I[Pen]IPE-NH2 (disulfide 3-11; N-terminus assumed; SMILES CC[C@H](C)[C@H](NC(=O)[C@H](C)N)C(=O)N[C@H]1CSSC(C)(C)[C@@H](C(=O)N[C@H](C(=O)N2CCC[C@H]2C(=O)N[C@@H](CCC(=O)O)C(N)=O)[C@@H](C)CC)NC(=O)[C@H]([C@@H](C)CC)NC(=O)[C@@H]2C[C@@H]3CCCC[C@@H]3N2C(=O)[C@@H]2CCCN2C(=O)[C@H](CC(C)C)NC(=O)[C@H](CO)NC(=O)[C@H](CCCNC(=N)N)NC(=O)[C@H](CO)NC1=O) [AIC+SRSLP-(Oic)-I-(Pen)+IPE-NH2] | 3.1 nM | 160 nM
AICSRS[tBuAla]PPICID-OH (disulfide 3-11; N-terminus assumed; SMILES CC[C@H](C)[C@H](NC(=O)[C@H](C)N)C(=O)N[C@H]1CSSC[C@@H](C(=O)N[C@H](C(=O)N[C@@H](CC(=O)O)C(=O)O)[C@@H](C)CC)NC(=O)[C@H]([C@@H](C)CC)NC(=O)[C@@H]2CCCN2C(=O)[C@@H]2CCCN2C(=O)[C@H](CC(C)(C)C)NC(=O)[C@H](CO)NC(=O)[C@H](CCCNC(=N)N)NC(=O)[C@H](CO)NC1=O) [AIC+SRS-((t-Bu)A)-PPIC+ID-OH] | 3.1 nM | 83 nM
[Orn]ICSRS[tBuAla]PPI[Pen]IP-NH2 (disulfide 3-11; N-terminus assumed; SMILES CC[C@H](C)[C@H](NC(=O)[C@@H](N)CCCN)C(=O)N[C@H]1CSSC(C)(C)[C@@H](C(=O)N[C@H](C(=O)N2CCC[C@H]2C(N)=O)[C@@H](C)CC)NC(=O)[C@H]([C@@H](C)CC)NC(=O)[C@@H]2CCCN2C(=O)[C@@H]2CCCN2C(=O)[C@H](CC(C)(C)C)NC(=O)[C@H](CO)NC(=O)[C@H](CCCNC(=N)N)NC(=O)[C@H](CO)NC1=O) [(Orn)-IC+SRS-((tBu)A)-PPI-(Pen)+IP-NH2] | 3.2 nM | 93 nM
AICSRS[tBuAla]P[Oic]I[Pen]IPD-NH2 (disulfide 3-11; N-terminus assumed; SMILES CC[C@H](C)[C@H](NC(=O)[C@H](C)N)C(=O)N[C@H]1CSSC(C)(C)[C@@H](C(=O)N[C@H](C(=O)N2CCC[C@H]2C(=O)N[C@@H](CC(=O)O)C(N)=O)[C@@H](C)CC)NC(=O)[C@H]([C@@H](C)CC)NC(=O)[C@@H]2C[C@@H]3CCCC[C@@H]3N2C(=O)[C@@H]2CCCN2C(=O)[C@H](CC(C)(C)C)NC(=O)[C@H](CO)NC(=O)[C@H](CCCNC(=N)N)NC(=O)[C@H](CO)NC1=O) [AIC+SRS-((tBu)A)-P-(Oic)-I-(Pen)+IPD-NH2] | 2.8 nM | 130 nM
A[NMeI]CSRS[tBuAla]P[Oic]I[NMeC]IPD-NH2 (disulfide 3-11; N-terminus assumed; SMILES CC[C@H](C)[C@@H]1NC(=O)[C@@H]2C[C@@H]3CCCC[C@@H]3N2C(=O)[C@@H]2CCCN2C(=O)[C@H](CC(C)(C)C)NC(=O)[C@H](CO)NC(=O)[C@H](CCCNC(=N)N)NC(=O)[C@H](CO)NC(=O)[C@@H](NC(=O)[C@H]([C@@H](C)CC)N(C)C(=O)[C@H](C)N)CSSC[C@@H](C(=O)N[C@H](C(=O)N2CCC[C@H]2C(=O)N[C@@H](CC(=O)O)C(N)=O)[C@@H](C)CC)N(C)C1=O) [A-((N-Me)I)-C+SRS-((tBu)A)-P-(Oic)-I-((N-Me)C)+IPD-NH2] | 3.1 nM | 590 nM
[Sar]ICSRSLP[Oic]I[Pen]IP-NH2 (disulfide 3-11; also: TFA salt) [((N-Me)G)-IC+SRSLP-(Oic)-I-(Pen)+IP-NH2] | 2.9 nM | 69.6 nM
[NMeA]ICSRSLP[Oic]I[Pen]IP-OH (disulfide 3-11; N-terminus assumed; SMILES CC[C@H](C)[C@H](NC(=O)[C@H](C)NC)C(=O)N[C@H]1CSSC(C)(C)[C@@H](C(=O)N[C@H](C(=O)N2CCC[C@H]2C(=O)O)[C@@H](C)CC)NC(=O)[C@H]([C@@H](C)CC)NC(=O)[C@@H]2C[C@@H]3CCCC[C@@H]3N2C(=O)[C@@H]2CCCN2C(=O)[C@H](CC(C)C)NC(=O)[C@H](CO)NC(=O)[C@H](CCCNC(=N)N)NC(=O)[C@H](CO)NC1=O) [((N-Me)A)-IC+SRSLP-(Oic)-I-(Pen)+IP-OH] | 2.9 nM | 200 nM
HICSRS[tBuAla]PPI[Pen]IPD-NH2 (disulfide 3-11; N-terminus assumed; SMILES CC[C@H](C)[C@H](NC(=O)[C@@H](N)Cc1c[nH]cn1)C(=O)N[C@H]1CSSC(C)(C)[C@@H](C(=O)N[C@H](C(=O)N2CCC[C@H]2C(=O)N[C@@H](CC(=O)O)C(N)=O)[C@@H](C)CC)NC(=O)[C@H]([C@@H](C)CC)NC(=O)[C@@H]2CCCN2C(=O)[C@@H]2CCCN2C(=O)[C@H](CC(C)(C)C)NC(=O)[C@H](CO)NC(=O)[C@H](CCCNC(=N)N)NC(=O)[C@H](CO)NC1=O) [HIC+SRS-((tBu)A)-PPI-(Pen)+IPD-NH2] | 3.2 nM | 75 nM
AICSRSLP[Oic]I[Pen]IP-OH (disulfide 3-11; N-terminus assumed; SMILES CC[C@H](C)[C@H](NC(=O)[C@H](C)N)C(=O)N[C@H]1CSSC(C)(C)[C@@H](C(=O)N[C@H](C(=O)N2CCC[C@H]2C(=O)O)[C@@H](C)CC)NC(=O)[C@H]([C@@H](C)CC)NC(=O)[C@@H]2C[C@@H]3CCCC[C@@H]3N2C(=O)[C@@H]2CCCN2C(=O)[C@H](CC(C)C)NC(=O)[C@H](CO)NC(=O)[C@H](CCCNC(=N)N)NC(=O)[C@H](CO)NC1=O) [AIC+SRSLP-(Oic)-I-(Pen)+IP-OH] | 2.9 nM | 160 nM
PICSRS[tBuAla]PPI[Pen]IPD-NH2 (disulfide 3-11; N-terminus assumed; SMILES CC[C@H](C)[C@H](NC(=O)[C@@H]1CCCN1)C(=O)N[C@H]1CSSC(C)(C)[C@@H](C(=O)N[C@H](C(=O)N2CCC[C@H]2C(=O)N[C@@H](CC(=O)O)C(N)=O)[C@@H](C)CC)NC(=O)[C@H]([C@@H](C)CC)NC(=O)[C@@H]2CCCN2C(=O)[C@@H]2CCCN2C(=O)[C@H](CC(C)(C)C)NC(=O)[C@H](CO)NC(=O)[C@H](CCCNC(=N)N)NC(=O)[C@H](CO)NC1=O) [PIC+SRS-((tBu)A)-PPI-(Pen)+IPD-NH2] | 1.14 nM | 50 nM
AICSRSLP[Oic]I[Pen]IPE-OH (disulfide 3-11; N-terminus assumed; SMILES CC[C@H](C)[C@H](NC(=O)[C@H](C)N)C(=O)N[C@H]1CSSC(C)(C)[C@@H](C(=O)N[C@H](C(=O)N2CCC[C@H]2C(=O)N[C@@H](CCC(=O)O)C(=O)O)[C@@H](C)CC)NC(=O)[C@H]([C@@H](C)CC)NC(=O)[C@@H]2C[C@@H]3CCCC[C@@H]3N2C(=O)[C@@H]2CCCN2C(=O)[C@H](CC(C)C)NC(=O)[C@H](CO)NC(=O)[C@H](CCCNC(=N)N)NC(=O)[C@H](CO)NC1=O) [AIC+SRSLP-(Oic)-I-(Pen)+IPE-OH] | 2.9 nM | 130 nM
AICSRSLP[Oic]I[Pen]IPQ-OH (disulfide 3-11; N-terminus assumed; SMILES CC[C@H](C)[C@H](NC(=O)[C@H](C)N)C(=O)N[C@H]1CSSC(C)(C)[C@@H](C(=O)N[C@H](C(=O)N2CCC[C@H]2C(=O)N[C@@H](CCC(N)=O)C(=O)O)[C@@H](C)CC)NC(=O)[C@H]([C@@H](C)CC)NC(=O)[C@@H]2C[C@@H]3CCCC[C@@H]3N2C(=O)[C@@H]2CCCN2C(=O)[C@H](CC(C)C)NC(=O)[C@H](CO)NC(=O)[C@H](CCCNC(=N)N)NC(=O)[C@H](CO)NC1=O) [AIC+SRSLP-(Oic)-I-(Pen)+IPQ-OH] | 3 nM | 140 nM
